The target in the assay is Venus-tagged carboxy-tail segment of CaV1.2 (UniProt P15381). In words: FRET or BRET.
Chain of UniProt P15381 (P15381 1525-2171): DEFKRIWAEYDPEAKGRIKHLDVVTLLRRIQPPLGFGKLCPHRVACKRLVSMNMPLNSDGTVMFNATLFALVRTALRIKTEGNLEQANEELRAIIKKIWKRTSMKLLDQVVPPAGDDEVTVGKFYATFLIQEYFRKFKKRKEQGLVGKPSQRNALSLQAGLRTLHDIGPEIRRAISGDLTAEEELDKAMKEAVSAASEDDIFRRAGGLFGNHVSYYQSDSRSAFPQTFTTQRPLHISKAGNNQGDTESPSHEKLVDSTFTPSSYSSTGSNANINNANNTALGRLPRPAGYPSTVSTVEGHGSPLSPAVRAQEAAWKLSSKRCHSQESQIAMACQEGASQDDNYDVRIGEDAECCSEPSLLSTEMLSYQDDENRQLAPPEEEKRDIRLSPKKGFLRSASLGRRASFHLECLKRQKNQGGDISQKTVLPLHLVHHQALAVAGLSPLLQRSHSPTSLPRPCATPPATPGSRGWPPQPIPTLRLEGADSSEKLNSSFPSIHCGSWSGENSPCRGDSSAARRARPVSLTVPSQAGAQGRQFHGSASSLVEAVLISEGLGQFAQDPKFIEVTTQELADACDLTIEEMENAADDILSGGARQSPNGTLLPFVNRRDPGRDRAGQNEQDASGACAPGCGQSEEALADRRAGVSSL

“Cerulean-tagged calmodulin (CaM) (from UniProt P0DP23 1-149) (natural protein)”: the stoichiometry N came to 1.

The record behind these values is article PMC9009374.
